# Test results from the RNAGym collection of RNA variant scans (doi:10.7554/elife.80360).
# B1: HDV Ribozyme (parent)
# chain: GGCCGGCAUGGUCCCAGCCUCCUCGCUGGCGCCGGCUGGGCAACAUUCCGAGGGGACCGUCCCCUCGGUAAUGGCGAAUGGGACCCA
# Variants of: B1
# Assay: self-cleavage, relative activity (ratio to wild type); higher = more cleavage; co-transcriptional
row,Variant,self-cleavage
1,GGCCGGCAUGGUCCCAGCCUCCUCGCUGGCGCCGGCUGGGCAACAUUCCGAGGGGACCGUCCGCUCGGUAAUGGCGAAUGGUACCCA [C63G G82U],0.289
2,GGCCGGCAUGGUCCCAGCCUCCUCGCUGGCGCCGGCUGGGCAACAUUCCGAGGGGACCGUCCUCACGGUAAUGGCGAAUGGGACCCA [C63U U65A],0.849
3,GGCCGGCAUGGUCCCAGCCUCCUCGCUGGCGCCGGCUGGGCAACAUUCCGAGGGGACCGUCCUCGCGGUAAUGGCGAAUGGGACCCA [C63U U65G],0.96
4,GGCCGGCAUGGUCCCAGCCUCCUCGCUGGCGCCGGCUGGGCAACAUUCCGAGGGGACCGUCCUUUCGGUAAUGGCGAAUGGGACCCA [C63U C64U],1.08
5,GGCCGGCAUGGUCCCAGCCUCCUCGCUGGCGCCGGCUGGGCAACAUUCCGAGGGGACCGUCCUAUCGGUAAUGGCGAAUGGGACCCA [C63U C64A],0.831
6,GGCCGGCAUGGUCCCAGCCUCCUCGCUGGCGCCGGCUGGGCAACAUUCCGAGGGGACCGUCCUGUCGGUAAUGGCGAAUGGGACCCA [C63U C64G],0.809
7,GGCCGGCAUGGUCCCAGCCUCCUCGCUGGCGCCGGCUGGGCAACAUUCCGAGGGGACCGUCCUCUCGGUAAUGGCGAAUGGGACCUA [C63U C86U],1.05
8,GGCCGGCAUGGUCCCAGCCUCCUCGCUGGCGCCGGCUGGGCAACAUUCCGAGGGGACCGUCCUCUCGGUAAUGGCGAAUGGGACCAA [C63U C86A],0.96
9,GGCCGGCAUGGUCCCAGCCUCCUCGCUGGCGCCGGCUGGGCAACAUUCCGAGGGGACCGUCCUCUCGGUAAUGGCGAAUGGGACUCA [C63U C85U],1.01
10,GGCCGGCAUGGUCCCAGCCUCCUCGCUGGCGCCGGCUGGGCAACAUUCCGAGGGGACCGUCCUCUCGGUAAUGGCGAAUGGGACACA [C63U C85A],0.958
11,GGCCGGCAUGGUCCCAGCCUCCUCGCUGGCGCCGGCUGGGCAACAUUCCGAGGGGACCGUCCUCUCGUUAAUGGCGAAUGGGACCCA [C63U G68U],0.8
12,GGCCGGCAUGGUCCCAGCCUCCUCGCUGGCGCCGGCUGGGCAACAUUCCGAGGGGACCGUCCUCUCGCUAAUGGCGAAUGGGACCCA [C63U G68C],0.941
13,GGCCGGCAUGGUCCCAGCCUCCUCGCUGGCGCCGGCUGGGCAACAUUCCGAGGGGACCGUCCGCUCGGUAAAGGCGAAUGGGACCCA [C63G U72A],0.458
14,GGCCGGCAUGGUCCCAGCCUCCUCGCUGGCGCCGGCUGGGCAACAUUCCGAGGGGACCGUCCGCUCGGUAACGGCGAAUGGGACCCA [C63G U72C],0.344
15,GGCCGGCAUGGUCCCAGCCUCCUCGCUGGCGCCGGCUGGGCAACAUUCCGAGGGGACCGUCCUCUCGGUAAUGGCGAAUGGGUCCCA [C63U A83U],0.584
16,GGCCGGCAUGGUCCCAGCCUCCUCGCUGGCGCCGGCUGGGCAACAUUCCGAGGGGACCGUCCGCUCUGUAAUGGCGAAUGGGACCCA [C63G G67U],0.293

row,Variant,self-cleavage
1,GGCCGGCAUGGUCCCAGCCUCCUCGCUGGCGCCGGCUGGGCAACAUUCCGAGGGGACCGUCCGCUCGGUAAUGACGAAUGGGACCCA [C63G G74A],0.326
2,GGCCGGCAUGGUCCCAGCCUCCUCGCUGGCGCCGGCUGGGCAACAUUCCGAGGGGACCGUCCUCUCGGUAAUGGCAAAUGGGACCCA [C63U G76A],0.855
3,GGCCGGCAUGGUCCCAGCCUCCUCGCUGGCGCCGGCUGGGCAACAUUCCGAGGGGACCGUCCUCUCGGUAAUGGCCAAUGGGACCCA [C63U G76C],0.997
4,GGCCGGCAUGGUCCCAGCCUCCUCGCUGGCGCCGGCUGGGCAACAUUCCGAGGGGACCGUCCUCUCGGUAAUGGAGAAUGGGACCCA [C63U C75A],0.106
5,GGCCGGCAUGGUCCCAGCCUCCUCGCUGGCGCCGGCUGGGCAACAUUCCGAGGGGACCGUCCUCUCGGUAAUGGGGAAUGGGACCCA [C63U C75G],0.0755
6,GGCCGGCAUGGUCCCAGCCUCCUCGCUGGCGCCGGCUGGGCAACAUUCCGAGGGGACCGUCCUCUCGGUUAUGGCGAAUGGGACCCA [C63U A70U],0.848
7,GGCCGGCAUGGUCCCAGCCUCCUCGCUGGCGCCGGCUGGGCAACAUUCCGAGGGGACCGUCCGCUCGGUAAUGGCCAAUGGGACCCA [C63G G76C],0.967
8,GGCCGGCAUGGUCCCAGCCUCCUCGCUGGCGCCGGCUGGGCAACAUUCCGAGGGGACCGUCCGCUCGGUAAUGGCAAAUGGGACCCA [C63G G76A],0.974
9,GGCCGGCAUGGUCCCAGCCUCCUCGCUGGCGCCGGCUGGGCAACAUUCCGAGGGGACCGUCCUCUCGGUAAAGGCGAAUGGGACCCA [C63U U72A],0.864
10,GGCCGGCAUGGUCCCAGCCUCCUCGCUGGCGCCGGCUGGGCAACAUUCCGAGGGGACCGUCCUCUCGGUAACGGCGAAUGGGACCCA [C63U U72C],0.751
11,GGCCGGCAUGGUCCCAGCCUCCUCGCUGGCGCCGGCUGGGCAACAUUCCGAGGGGACCGUCCUCUCGGUAAGGGCGAAUGGGACCCA [C63U U72G],0.776
12,GGCCGGCAUGGUCCCAGCCUCCUCGCUGGCGCCGGCUGGGCAACAUUCCGAGGGGACCGUCCGCUCGGUAAUGGCGAAUUGGACCCA [C63G G80U],0.199
13,GGCCGGCAUGGUCCCAGCCUCCUCGCUGGCGCCGGCUGGGCAACAUUCCGAGGGGACCGUCCGCUCGGUAAUGGCGAAUCGGACCCA [C63G G80C],0.147
14,GGCCGGCAUGGUCCCAGCCUCCUCGCUGGCGCCGGCUGGGCAACAUUCCGAGGGGACCGUCCGCUCGGUAAUGGCGAAUGUGACCCA [C63G G81U],0.375
15,GGCCGGCAUGGUCCCAGCCUCCUCGCUGGCGCCGGCUGGGCAACAUUCCGAGGGGACCGUCCGCUCGGUAAUGGCGAAUGAGACCCA [C63G G81A],0.453
16,GGCCGGCAUGGUCCCAGCCUCCUCGCUGGCGCCGGCUGGGCAACAUUCCGAGGGGACCGUCCGCUCGGUAAUGGCGAAUGCGACCCA [C63G G81C],0.277
